T1: CasΦ.12 (in cells) (Unknown)
T1 chain: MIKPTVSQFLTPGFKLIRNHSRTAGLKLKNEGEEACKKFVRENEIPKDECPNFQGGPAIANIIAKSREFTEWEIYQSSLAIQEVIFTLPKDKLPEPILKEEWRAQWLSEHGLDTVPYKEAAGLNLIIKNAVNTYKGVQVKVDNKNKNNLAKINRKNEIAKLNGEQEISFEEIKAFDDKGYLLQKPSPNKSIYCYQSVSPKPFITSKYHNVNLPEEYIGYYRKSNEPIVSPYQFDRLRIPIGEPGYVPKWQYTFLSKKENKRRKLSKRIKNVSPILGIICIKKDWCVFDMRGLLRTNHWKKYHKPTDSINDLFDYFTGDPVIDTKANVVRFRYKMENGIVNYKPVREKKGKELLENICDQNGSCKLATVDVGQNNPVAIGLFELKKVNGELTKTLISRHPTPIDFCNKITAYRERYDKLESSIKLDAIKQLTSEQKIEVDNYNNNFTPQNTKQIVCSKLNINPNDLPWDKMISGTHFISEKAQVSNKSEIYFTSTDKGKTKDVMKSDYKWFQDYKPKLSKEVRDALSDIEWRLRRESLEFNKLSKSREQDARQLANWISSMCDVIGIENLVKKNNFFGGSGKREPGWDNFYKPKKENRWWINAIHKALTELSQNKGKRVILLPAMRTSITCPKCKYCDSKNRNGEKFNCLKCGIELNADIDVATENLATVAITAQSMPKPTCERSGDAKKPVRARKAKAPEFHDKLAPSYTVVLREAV

B1: B2M gRNA R3132 ; B2M target (ssRNA ; dsDNA)
RNA: CUUUCAAGACUAAUAGAUUGCUCCUUACGAGGAGACAGCAAGGACUGGUCUUUCUA
DNA 1: AGCAAGGACTGGTCTTTCTA
DNA 2: TAGAAAGACCAGTCCTTGCT
B2: PDCD1 gRNA R2925 ; PDCD1 target (ssRNA ; dsDNA)
RNA: CUUUCAAGACUAAUAGAUUGCUCCUUACGAGGAGACUAGCACCGCCCAGACGACUG
DNA 1: TAGCACCGCCCAGACGACTG
DNA 2: CAGTCGTCTGGGCGGTGCTA
B3: TRAC gRNA R3042 ; TRAC target (ssRNA ; dsDNA)
RNA: CUUUCAAGACUAAUAGAUUGCUCCUUACGAGGAGACGAGUCUCUCAGCUGGUACAC
DNA 1: GAGTCTCTCAGCTGGTACAC
DNA 2: GTGTACCAGCTGAGAGACTC

Target: T1, CasΦ.12 (in cells)
Experiment: cell_activity; T cells, RNP nucleofection; PAM NTTN
Description: This example illustrates the ability of CasΦ RNP complexes to knockout multiple genes simultaneously. In this study, gRNAs targeting B2M, TRAC and PDCD1 (provided in Table 15) were incubated with CasΦ.12 (SEQ ID NO: 12) for 10 minutes at room temperature to form B2M, TRAC, and PDC1 targeting RNPs, respectively. The B2M targeting RNPs, TRAC targeting RNPs, PDCD1 targeting RNPs and combinations thereof were added to T cells. T cells were resuspended at 5×10⁵ cells/20 μL in Nucleofection P3 solution and an Amaxa 4D 96-well electroporation system with pulse code EH115 was used to nucleofect the cells. Immediately after nucleofection, 85 μl pre-warmed culture medium was added to each well. The cells were then left in the cuvette plate for 10 minutes before transfer to the culture plate. On Day 3, genomic DNA was extracted and sent for NGS sequencing and the % indel was measured with a positive % indel being indicative of % knockout. On Day 5, cells were harvested for flow cytometry and the % knockout was measured with fluorescently labeled antibodies to TRAC and B2M (antibody to PDCD1 unavailable). % indel results are presented in Table 16 and flow cytometry data presented in Table 17.

| Binder | activity |
| --- | --- |
| B1 | 85.5 % indel |
| B2 | 44.6 % indel |
| B3 | 77.6 % indel |
